# Legend:
# Assay in all cases: LC/MS-MS of diol formed
# Assay type in all cases: biochemical, Homo sapiens
# [1] = substrate: CC/C=C\C/C=C\CC1OC1C/C=C\C/C=C\C/C=C\CCC(=O)O; details: Tris/HCl 0.1 M pH 9.0, 0.1 mg/mL BSA, 37 °C
# Description: (§1) LC/MS-MS of diol formed on mEH
# [2] = substrate: CCCCC/C=C\C/C=C\CC1OC1C/C=C\CCCC(=O)O; details: Tris/HCl 0.1 M pH 9.0, 0.1 mg/mL BSA, 37 °C
# Description: as §1
# [3] = substrate: CCCCC/C=C\C[C@@H]1O[C@H]1/C=C/C(O)C/C=C\CCCC(=O)O; details: Tris/HCl 0.1 M pH 9.0, 0.1 mg/mL BSA, 37 °C
# Description: as §1
# [4] = substrate: CCCCCC1OC1C/C=C\C/C=C\C/C=C\CCCC(=O)O; details: Tris/HCl 0.1 M pH 9.0, 0.1 mg/mL BSA, 37 °C
# Description: as §1
# [5] = substrate: CC/C=C\C/C=C\CC1OC1C/C=C\C/C=C\C/C=C\CCC(=O)O; details: sodium phosphate 0.1 M pH 7.4, 0.1 mg/mL BSA, 37 °C, crude membrane extract
# Description: (§2) LC/MS-MS of diol formed on EH3
# [6] = substrate: CCCCC/C=C\C/C=C\CC1OC1C/C=C\CCCC(=O)O; details: sodium phosphate 0.1 M pH 7.4, 0.1 mg/mL BSA, 37 °C, crude membrane extract
# Description: as §2
# [7] = substrate: CCCCC/C=C\C[C@@H]1O[C@H]1/C=C/C(O)C/C=C\CCCC(=O)O; details: sodium phosphate 0.1 M pH 7.4, 0.1 mg/mL BSA, 37 °C, crude membrane extract
# Description: as §2
# [8] = substrate: CCCCCC1OC1C/C=C\C/C=C\C/C=C\CCCC(=O)O; details: sodium phosphate 0.1 M pH 7.4, 0.1 mg/mL BSA, 37 °C, crude membrane extract
# Description: as §2
protein,measurement,setting,value
mEH (Homo sapiens) (protein) MWLEILLTSVLGFAIYWFISRDKEETLPLEDGWWGPGTRSAAREDDSIRPFKVETSDEEIHDLHQRIDKFRFTPPLEDSCFHYGFNSNYLKKVISYWRNEFDWKKQVEILNRYPHFKTKIEGLDIHFIHVKPPQLPAGHTPKPLLMVHGWPGSFYEFYKIIPLLTDPKNHGLSDEHVFEVICPSIPGYGFSEASSKKGFNSVATARIFYKLMLRLGFQEFYIQGGDWGSLICTNMAQLVPSHVKGLHLNMALVLSNFSTLTLLLGQRFGRFLGLTERDVELLYPVKEKVFYSLMRESGYMHIQCTKPDTVGSALNDSPVGLAAYILEKFSTWTNTEFRYLEDGGLERKFSLDDLLTNVMLYWTTGTIISSQRFYKENLGQGWMTQKHERMKVYVPTGFSAFPFELLHTPEKWVRFKYPKLISYSYMVRGGHFAAFEEPELLAQDIRKFLSVLERQ,Km,[1],2.9 ± 0.4 µM
same,Vmax,[1],0.445 µmol/min/mg
same,kcat,[1],0.37 ± 0.01 s⁻¹
same,kcat/Km,[1],130000 ± 20000 M⁻¹ s⁻¹
same,Km,[2],2.5 ± 0.6 µM
same,Vmax,[2],0.038 µmol/min/mg
same,kcat,[2],0.032 ± 0.002 s⁻¹
same,kcat/Km,[2],13000 ± 1000 M⁻¹ s⁻¹
same,Km,[3],51 ± 14 µM
same,Vmax,[3],0.023 µmol/min/mg
same,kcat,[3],0.019 ± 0.003 s⁻¹
same,kcat/Km,[3],370 ± 60 M⁻¹ s⁻¹
same,Km,[4],80 ± 6 µM
same,Vmax,[4],0.053 µmol/min/mg
same,kcat,[4],0.044 ± 0.003 s⁻¹
same,kcat/Km,[4],550 ± 10 M⁻¹ s⁻¹
EH3 (Homo sapiens) (protein) MPELVVTALLAPSRLSLKLLRAFMWSLVFSVALVAAAVYGCIALTHVLCRPRRGCCGRRRSASPACLSDPSLGEHGFLNLKSSGLRLHYVSAGRGNGPLMLFLHGFPENWFSWRYQLREFQSRFHVVAVDLRGYGPSDAPRDVDCYTIDLLLVDIKDVILGLGYSKCILVAHDWGALLAWHFSIYYPSLVERMVVVSGAPMSVYQDYSLHHISQFFRSHYMFLFQLPWLPEKLLSMSDFQILKTTLTHRKTGIPCLTPSELEAFLYNFSQPGGLTGPLNYYRNLFRNFPLEPQELTTPTLLLWGEKDTYLELGLVEAIGSRFVPGRLEAHILPGIGHWIPQSNPQEMHQYMWAFLQDLLD,Km,[5],4.3 ± 1.2 µM
same,Vmax,[5],0.121 µmol/min/mg
same,kcat,[5],0.08 ± 0.01 s⁻¹
same,kcat/Km,[5],19000 ± 3000 M⁻¹ s⁻¹
same,Km,[6],10 ± 0.5 µM
same,Vmax,[6],0.044 µmol/min/mg
same,kcat,[6],0.03 ± 0.001 s⁻¹
same,kcat/Km,[6],3000 ± 200 M⁻¹ s⁻¹
same,Km,[7],14 ± 1 µM
same,Vmax,[7],0.017 µmol/min/mg
same,kcat,[7],0.014 ± 0.001 s⁻¹
same,kcat/Km,[7],1010 ± 30 M⁻¹ s⁻¹
same,Km,[8],76 ± 16 µM
same,Vmax,[8],0.027 µmol/min/mg
same,kcat,[8],0.018 ± 0.003 s⁻¹
same,kcat/Km,[8],240 ± 10 M⁻¹ s⁻¹
